This note sets out measurements from paper PMC6879610 (Nature Communications, 2019).

What all share (details): both partners purified
The target in one experiment is ovalbumin (Gallus gallus (species assumed), UniProt P01012). As to the kind of experiment: ELISA; 250 ng antigen per well coated overnight at 4 °C in PBS; serial dilutions of antibody 1 h at 37 °C; detected with anti-human IgG Fc-HRP.
For experiment [1], the target named is T1, MPER peptide PDT-081 (HIV-1, strain  (synthetic …)).
T1 construct: also called full-length MPER
The experiment is described as follows: BLI; Octet RED96; biotinylated peptide PDT-081 (7.5 μg/ml) on streptavidin biosensors; serial dilution of Fab, 5 min association, 5 min dissociation; PBS/0.002% Tween 20/0.01% BSA; KD as koff/kon. A general note: BLI is a label-free optical method that tracks binding on a fibre tip over time.
T1 sequence (P05877 655-684): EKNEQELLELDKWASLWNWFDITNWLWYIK

Experiment [2] has as its target T2, MPER peptide PDT-081 (HIV-1, strain  (synthetic …)).
T2 construct: also called PDT081pept
The experiment is described as follows: BLI; Octet RED96; biotinylated MPER peptide PDT-081 (7.5 ug/ml) captured on streptavidin biosensors; serial dilution of Fab, 5 min association, 5 min dissociation; PBS/0.002% Tween 20/0.01% bovine serum albumin; KD = koff/kon from five sensorgrams of the dilution series.
T2 sequence (P05877 655-684): as above

Experiment [3] addresses T1, MPER peptide PDT-081. The experiment is described as follows: ELISA; 250 ng antigen per well coated overnight at 4 °C in PBS; serial dilutions of antibody 1 h at 37 °C; detected with anti-human IgG Fc-HRP. Background: An ELISA detects its analyte on a solid surface through an enzyme-linked reagent.
Experiment [4] deals with T2, MPER peptide PDT-081. As to the kind of experiment: BLI; Octet RED96; biotinylated MPER peptide PDT-081 (7.5 ug/ml) captured on streptavidin biosensors; serial dilution of Fab, 5 min association, 5 min dissociation; PBS/0.002% Tween 20/0.01% bovine serum albumin; KD = koff/kon from five sensorgrams of the dilution series. This is another data set of the same source.
The target in experiment [5] is T2, MPER peptide PDT-081. The description is as above. This is another data set of the same source.
The target of experiment [6] is T2, MPER peptide PDT-081. The experiment is described as above. The source holds these as a separate data set.
Experiment [7] addresses T2, MPER peptide PDT-081. Described as above. This is another data set of the same source.
Experiment [8] concerns the target T2, MPER peptide PDT-081. The experiment is described as above. The source holds these as a separate data set.

B1: 4E10 (antibody, V domains shown)
VH: QVQLVQSGAEVKRPGSSVTVSCKASGGSFSTYALSWVRQAPGRGLEWMGGVIPLLTITNYAPRFQGRITITADRSTSTAYLELNSLRPEDTAVYYCAREGTTGWGWLGKPIGAFAHWGQGTLVTVSS
VL: EIVLTQSPGTQSLSPGERATLSCRASQSVGNNKLAWYQQRPGQAPRLLIYGASSRPSGVADRFSGSGSGTDFTLTISRLEPEDFAVYYCQQYGQSLSTFGQGTKVEVK
notes: also called BnAb 4E10; mature 4E10
On to B1, for which the binding result with ovalbumin is on record as “binds”.

B2: 4E10 L100cF (whole antibody) (antibody, V domains shown)
VH: QVQLVQSGAEVKRPGSSVTVSCKASGGSFSTYALSWVRQAPGRGLEWMGGVIPLLTITNYAPRFQGRITITADRSTSTAYLELNSLRPEDTAVYYCAREGTTGWGWFGKPIGAFAHWGQGTLVTVSS
VL: EIVLTQSPGTQSLSPGERATLSCRASQSVGNNKLAWYQQRPGQAPRLLIYGASSRPSGVADRFSGSGSGTDFTLTISRLEPEDFAVYYCQQYGQSLSTFGQGTKVEVK
As to B2, the binding result with ovalbumin is recorded as “binds”.

B3: PGZL1 gVmDmJ Fab (Fab, V domains shown)
VH: QVQLVQSGAEVKKPGSSVKVSCKASGGTFSSYAISWVRQAPGQGLEWMGGIIPIFGTANYAQKFQGRVTITADKSTSTAYMELSSLRSEDTAVYYCAREGEGWFGKPLRAFEFWGQGTVITVSS
VL: not shown
notes: also called inferred germline PGZL1 Fab
A word on the Kd: it is the equilibrium constant for the complex coming apart. The low end stands for a tighter complex, the high end for a looser complex. In turn, B3 came in with an equilibrium dissociation constant (Kd) in the experiment with MPER peptide PDT-081 [1] of 64.4 nM.

B4: PGZL1 gVgDgJ Fab (Fab, V domains shown)
VH: QVQLVQSGAEVKKPGSSVKVSCKASGGTFSSYAISWVRQAPGQGLEWMGGIIPIFGTANYAQKFQGRVTITADKSTSTAYMELSSLRSEDTAVYYCAREGEGWFGEPLRAFDVWGQGTVITVSS
VL: not shown
Turning to B4, the affinity with MPER peptide PDT-081 [1], expressed as Kd, was 938 nM.

B5: PGZL1 gVgDgJ Fab (Fab, V domains shown)
VH: QVQLVQSGAEVKKPGSSVKVSCKASGGTFSSYAISWVRQAPGQGLEWMGGIIPIFGTANYAQKFQGRVTITADKSTSTAYMELSSLRSEDTAVYYCAREGEGWFGEPLRAFDVWGQGTVITVSS
VL: not shown
A word on the koff: it is the first-order rate constant of dissociation. High values mean a short-lived complex, low ones a long-lived complex. Usually kon stands for a measure of how fast the partners come together. Low readings indicate slow association, high ones fast association. Consider B5, for which, in the experiment with MPER peptide PDT-081 [2], the koff amounted to 0.00802 s⁻¹ and the kon was found to be 8550 M⁻¹ s⁻¹.

B6: PGZL1 gVgDgJ IgG (antibody, V domains shown)
VH: QVQLVQSGAEVKKPGSSVKVSCKASGGTFSSYAISWVRQAPGQGLEWMGGIIPIFGTANYAQKFQGRVTITADKSTSTAYMELSSLRSEDTAVYYCAREGEGWFGEPLRAFDVWGQGTVITVSS
VL: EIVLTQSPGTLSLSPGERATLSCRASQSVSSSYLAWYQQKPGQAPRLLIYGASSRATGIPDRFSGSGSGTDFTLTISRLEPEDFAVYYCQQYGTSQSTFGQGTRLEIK
Regarding B6, the “fold increase in EC50” value with MPER peptide PDT-081 [3] came out at 369 fold.

B7: PGZL1 gVgDmJ Fab (Fab, V domains shown)
VH: QVQLVQSGAEVKKPGSSVKVSCKASGGTFSSYAISWVRQAPGQGLEWMGGIIPIFGTANYAQKFQGRVTITADKSTSTAYMELSSLRSEDTAVYYCAREGEGWFGEPLRAFEFWGQGTVITVSS
VL: not shown
Take B7: in the experiment with MPER peptide PDT-081 [1], the affinity, expressed as Kd, was 148 nM. In other words, the sub-micromolar range.

B8: PGZL1 gVmDmJ Fab (Fab, V domains shown)
VH: QVQLVQSGAEVKKPGSSVKVSCKASGGTFSSYAISWVRQAPGQGLEWMGGIIPIFGTANYAQKFQGRVTITADKSTSTAYMELSSLRSEDTAVYYCAREGEGWFGKPLRAFEFWGQGTVITVSS
VL: not shown
In the experiment with MPER peptide PDT-081 [4], B8 gave a koff of 0.000991 s⁻¹ and an on-rate (kon) of 15400 M⁻¹ s⁻¹.

B9: PGZL1 gVgDmJ Fab (Fab, V domains shown)
VH: QVQLVQSGAEVKKPGSSVKVSCKASGGTFSSYAISWVRQAPGQGLEWMGGIIPIFGTANYAQKFQGRVTITADKSTSTAYMELSSLRSEDTAVYYCAREGEGWFGEPLRAFEFWGQGTVITVSS
VL: not shown
Turning to B9, in the experiment with MPER peptide PDT-081 [5], the dissociation rate constant (koff) was determined as 0.00197 s⁻¹ and the on-rate (kon) came out at 13300 M⁻¹ s⁻¹.

B10: H4K3_SFS28EPE Fab (Fab, V domains shown)
VH: KVQLVQSGAELKKPWSSVRVSCKASGGEPESYAFNWVRQAPGQRLEWLGGIVPLVSSTNYAQRFRGRVTISADRSTSTVYLEMTGLTSADTAVYFCAREGEGWFGRPLRAFEFWGQGTLVTVST
VL: EIVLTQSPGTFALSPGERATLSCRASQSVSGGALAWYQQKAGQAPRLLIYDTSGRATGVPGRFSGSGSETDFSLTISRLEPEDFAVYYCQQYGTSQSTFGQGTRLETR
Take B10: in the experiment with MPER peptide PDT-081 [6], the Kd stood at 15.1 nM, the dissociation rate constant (koff) was determined as 0.000539 s⁻¹ and the kon came to 35700 M⁻¹ s⁻¹.

B11: H4K3_5M Fab (Fab, V domains shown)
VH: KVQLVQSGAELKKPWSSVRVSCKASGGEPESYAFNWVRQAPGQRLEWLGGIVPLVSSTNYAQRFRGRVTISADPETSTVYLEMTGLTSADTAVYFCAREGEGWFGRPLRAFEFWGQGTLVTVST
VL: EIVLTQSPGTFALSPGERATLSCRASQSVSGGALAWYQQKAGQAPRLLIYDTSGRATGVPGRFSGSGSETDFSLTISRLEPEDFAVYYCQQYGTSQSTFGQGTRLETR
In the experiment with MPER peptide PDT-081 [7], B11 displayed a dissociation constant Kd of 23.4 nM, an off-rate (koff) of 0.000674 s⁻¹ and an association rate constant (kon) of 28800 M⁻¹ s⁻¹.

B12: H4K3_RS73PE Fab (Fab, V domains shown)
VH: KVQLVQSGAELKKPWSSVRVSCKASGGSFSSYAFNWVRQAPGQRLEWLGGIVPLVSSTNYAQRFRGRVTISADPETSTVYLEMTGLTSADTAVYFCAREGEGWFGRPLRAFEFWGQGTLVTVST
VL: EIVLTQSPGTFALSPGERATLSCRASQSVSGGALAWYQQKAGQAPRLLIYDTSGRATGVPGRFSGSGSETDFSLTISRLEPEDFAVYYCQQYGTSQSTFGQGTRLETR
On to B12, for which, in the experiment with MPER peptide PDT-081 [8], the Kd worked out at 12.8 nM, the koff is 0.000509 s⁻¹ and the kon came out at 39700 M⁻¹ s⁻¹.
